± gives the uncertainty stated by the source.
Assay: protein stability index of a GFP-peptide fusion (yeast GPS) (PSI 1-4); higher = more stable; sorted into four equal gates, so the index is relative within each strain
Summary of the method: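 The protein stability index of a peptide was calculated by multiplying its read frequency in each gate by that gate's number and adding the products. The peptides were tiled 17-residue stretches of yeast proteins, fused downstream of GFP on a Cherry-expressing plasmid and carried in yeast as a pooled library. Mid-log cultures in leucine-free medium were sorted into four equal gates by GFP/Cherry ratio, and each gate's plasmids were PCR-amplified and Illumina-sequenced.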

Sequence | protein stability index (doa10∆) | protein stability index (pdr5∆) | protein stability index (san1∆) | protein stability index (ubr1∆)
GIGSLTDLMSIVQELLD [RPC34] | 3.49 ± 0.17 | 2.91 ± 0.16 | 3.23 ± 0.13 | 3.17 ± 0.13
LGKKKATVDEFPLCVHL [RPL10] | 3.1 ± 0.19 | 2.67 ± 0.14 | 3 ± 0.29 | 2.71 ± 0.069
FEPASRLQGIKLLDNIQ [COR1] | 2.87 ± 0.064 | 2.98 ± 0.063 | 2.64 ± 0.06 | 2.54 ± 0.046
LSHIVYFLVLSPYGNLQ [RPN5] | 1.53 ± 0.054 | 1.33 ± 0.055 | 1.25 ± 0.087 | 1.12 ± 0.034
RLNENKKIGCYMFANLE [CSN12] | 2.76 ± 0.17 | 3.14 ± 0.18 | 3.25 ± 0.084 | 3.27 ± 0.11
YNNKVGVAASQGSMSER [SIR2] | 1.79 ± 0.066 | 2.04 ± 0.063 | 2.49 ± 0.12 | 1.85 ± 0.064
TLHLVLRLRGGIIEPSL [RPL40A] | 2.99 ± 0.056 | 2.81 ± 0.049 | 2.58 ± 0.056 | 2.77 ± 0.044
KPVKVALIFIFFAYFIG [YJL039C/NUP192] | 1.66 ± 0.042 | 1.4 ± 0.037 | 1.38 ± 0.064 | 1.4 ± 0.027
QEIFDANVQRLKEYQSK [RPL13A] | 3.06 ± 0.097 | 3.4 ± 0.15 | 2.93 ± 0.15 | 3.27 ± 0.093
GEYSVKLLKGATLYIPK [FAS2] |  | 2.87 ± 0.21 | 2.9 ± 0.12 | 
MSGGKGGKAGSAAKASQ [HTA1] | 3.18 ± 0.1 | 3.13 ± 0.1 | 2.83 ± 0.1 | 3.24 ± 0.07
DMAILERYYELAFDKLN [ARP7] | 1.3 ± 0.09 | 1.6 ± 0.1 | 1.31 ± 0.16 | 1.54 ± 0.18
TILQHLSEAWRCWKANI [PRP8] | 3.33 ± 0.081 | 3.36 ± 0.083 | 3.5 ± 0.047 | 3.32 ± 0.068
FYDIRSLLERHIPRLIP [YJL039C/NUP192] | 2.79 ± 0.049 | 2.46 ± 0.046 | 2.2 ± 0.048 | 2.77 ± 0.055
MQKHGYIGEFEYIDDHR [RPS22A] | 3.16 ± 0.083 | 3.19 ± 0.084 | 2.93 ± 0.07 | 3.24 ± 0.093
MTVAHLIECLLSKVAAL [RPB2] | 1.97 ± 0.084 | 2.01 ± 0.074 | 1.84 ± 0.1 | 1.54 ± 0.054
DRIIHTWRTQLAASEIG [ECM29] | 1.65 ± 0.056 | 1.84 ± 0.06 | 1.65 ± 0.062 | 1.83 ± 0.035
RNFKKANLVNKESDLLE [BRN1] | 1.7 ± 0.099 | 1.58 ± 0.051 | 1.64 ± 0.11 | 1.43 ± 0.053
ANFIFSPASGIVDKYIG [RPT4] | 2.81 ± 0.067 | 2.79 ± 0.097 | 1.93 ± 0.12 | 2.42 ± 0.077
SDIKQGYTQHGGLRPFG [PRE9] | 3.5 ± 0.13 | 2.53 ± 0.23 | 3.58 ± 0.15 | 
SLNFIPITASTSRVFAK [YML103C/NUP188] |  | 1.58 ± 0.28 | 2.06 ± 0.26 | 
YIESKFCPGEIVGKSNV [YMR129W/POM152] | 2.86 ± 0.1 | 2.92 ± 0.1 |  | 2.65 ± 0.07
KISDDELERILKELSNL [RPB4] | 3.16 ± 0.13 | 3.17 ± 0.091 |  | 3 ± 0.1
SKICLSHFSLDQFITSL [ITC1] | 2.21 ± 0.06 | 2.86 ± 0.076 | 2.17 ± 0.081 | 2.69 ± 0.057
EDALYLGKRSILAAAHR [PRE2] | 3.42 ± 0.062 | 3.33 ± 0.06 | 3.16 ± 0.067 | 3.31 ± 0.051
EFVSYYYAHSIPSSKID [SNU114] | 2.01 ± 0.045 | 1.9 ± 0.052 | 2.07 ± 0.063 | 1.62 ± 0.039

Sequence | protein stability index (doa10∆) | protein stability index (pdr5∆) | protein stability index (san1∆) | protein stability index (ubr1∆)
DQLDSEAASITRKSLNN [ECM29] | 2.89 ± 0.1 | 2.91 ± 0.1 | 3.04 ± 0.064 | 2.95 ± 0.049
MSAPEAQQQKRGGFGGR [RPS2] |  | 3.25 ± 0.13 | 3.28 ± 0.1 | 3.33 ± 0.17
EHRRYDDQLKQRRQNIR [RPT4] | 2.62 ± 0.18 | 2.46 ± 0.18 | 2.29 ± 0.14 | 2.69 ± 0.12
EHSQVEQTCVKLLDSGC [SRP72] | 3.15 ± 0.068 | 3.38 ± 0.083 | 3.11 ± 0.085 | 3.34 ± 0.063
GNPVNDANLLGAEVLIK [COR1] | 2.56 ± 0.086 | 3.02 ± 0.093 | 2.63 ± 0.075 | 2.89 ± 0.035
AVVGQQIISGNRVPDGF [RPO31] |  | 3.28 ± 0.28 | 2.88 ± 0.2 | 2.65 ± 0.13
NNDFKLSIDKVLKKPNR [RET1] | 2.06 ± 0.092 | 2.84 ± 0.12 | 3.01 ± 0.1 | 2.94 ± 0.13
DSTLILEQLAQHTTESD [RPB2] | 2.17 ± 0.05 | 2.67 ± 0.055 | 2.46 ± 0.072 | 2.43 ± 0.052
QSSAIGALQESVEAYLV [HHT1] | 2.04 ± 0.077 | 2.81 ± 0.087 | 2.39 ± 0.11 | 2.15 ± 0.079
STTFADCPVVPADPDIL [RPC40] | 2.8 ± 0.071 | 2.87 ± 0.084 | 2.41 ± 0.11 | 2.43 ± 0.094
ESTAGSASTSATGISGS [ECM29] | 3.31 ± 0.046 | 3.35 ± 0.053 | 3.12 ± 0.035 | 3.277 ± 0.032
NETKKRNFLETVELQVG [RPL1A] | 2.96 ± 0.24 | 2.72 ± 0.23 |  | 
FGRKNDRQCMIMDELLS [DIB1] | 2.57 ± 0.047 | 2.65 ± 0.038 | 2.49 ± 0.057 | 2.73 ± 0.034
KINRPPVSVSRIARALK [RPL18A] |  | 2.06 ± 0.1 | 1.97 ± 0.13 | 2.66 ± 0.18
QLDFTEFDEQYGTRPLV [SNF2] | 3.26 ± 0.048 | 3.02 ± 0.047 | 3.21 ± 0.039 | 2.81 ± 0.032
EATLESKLKEEEAALLI [ESC2] | 2.86 ± 0.067 | 3.05 ± 0.058 | 2.88 ± 0.038 | 2.91 ± 0.05
NNLSNQLETLTGSIRHR [CSE2] | 3.06 ± 0.096 | 2.98 ± 0.06 | 3.04 ± 0.049 | 3.13 ± 0.059
ETNAKPFSFSSATSTTE [YLR335W/NUP2] | 2.18 ± 0.056 | 2.4 ± 0.053 | 2.35 ± 0.053 | 2.26 ± 0.035
DTRITPSKVSKIDSHVV [PRE6] | 2.76 ± 0.078 | 3.09 ± 0.064 | 2.46 ± 0.14 | 2.72 ± 0.063
EFIFGTYNMIDAAAEKR [ARP7] | 2.99 ± 0.057 | 3.02 ± 0.057 | 3.08 ± 0.044 | 3.12 ± 0.04
LEESDVEDTLHVNKRKR [YOR098C/NUP1] | 3.26 ± 0.095 | 2.89 ± 0.095 | 3.12 ± 0.074 | 2.91 ± 0.062
PLAPAPINLPPQIAQLP [SNF5] | 1.8 ± 0.079 | 2.09 ± 0.064 | 1.88 ± 0.12 | 1.97 ± 0.061
CFMHLLVQLFLWDSKEL [RPN3] | 1.23 ± 0.078 | 1.6 ± 0.064 | 1.61 ± 0.15 | 1.54 ± 0.15
EVGDVCINELDNWNAPL [RPO31] | 3.21 ± 0.086 | 3.06 ± 0.074 | 3.21 ± 0.052 | 3.25 ± 0.053
KINDESSIDKKSSILTV [YML103C/NUP188] | 2.35 ± 0.062 | 2.68 ± 0.067 | 2.56 ± 0.059 | 2.52 ± 0.056

Source: the supplement of paper PMC9732359
